Assays:
[1] = target: T1, human VEGFA-121 (VEGF-A-121-His) (human, UniProt P15692-9 27-147); experiment: SPR (Biacore T200), VEGF-A-121-His captured by anti-His antibody, bispecific antibody as analyte, 1:1 Langmuir
T1 construct: Captured on the chip through an anti-His antibody; not shown: His tag
T1 sequence (looked up): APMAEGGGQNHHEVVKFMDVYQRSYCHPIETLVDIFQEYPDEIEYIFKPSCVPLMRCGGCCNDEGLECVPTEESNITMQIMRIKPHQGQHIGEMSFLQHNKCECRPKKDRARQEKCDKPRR
Procedure: Around 10000 (RU) of anti His antibody (1 μg/ml anti His antibody; Order Code: 28995056; GE Healthcare Bio-Sciences AB, Sweden) were coupled on a Series S CM5 chip (GE Healthcare BR-1005-30) at pH 5.0 by using an amine coupling kit supplied by the GE Healthcare. HBS-N (10 mM HEPES, 150 mM NaCl pH 7.4, GE Healthcare) was used as running buffer during the immobilization procedure. For the following kinetic characterization, sample and running buffer was PBS-T (10 mM phosphate buffered saline including 0.05% Tween20) at pH 7.4. The flow cell was set to 25° C.—and the sample block set to 12° C.—and primed with running buffer twice prior to kinetic characterization.
(§1) Binding of the multispecific antibodies to their respective target antigens, i.e. ANG2 and VEGF, was assessed by Biacore® as described in the general methods section.

[2] = target: T2, human Ang-2-RBD-Fc (human, UniProt O15123 275-496, limits assumed); experiment: SPR (Biacore T200), bispecific antibody captured by anti-human F(ab')2, Ang2-RBD-Fc as analyte, 1:1 Langmuir
T2 construct: domain: RBD; Analyte in solution; not shown: Fc part
T2 sequence (looked up): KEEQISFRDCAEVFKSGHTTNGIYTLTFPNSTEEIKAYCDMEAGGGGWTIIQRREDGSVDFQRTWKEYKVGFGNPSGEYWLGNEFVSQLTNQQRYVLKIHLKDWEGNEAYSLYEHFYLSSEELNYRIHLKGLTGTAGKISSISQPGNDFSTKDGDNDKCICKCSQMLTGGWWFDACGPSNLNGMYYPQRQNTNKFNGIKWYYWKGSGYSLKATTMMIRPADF
Procedure: (§2) Binding of indicated antibodies to human Ang-2-RBD-Fc was investigated by surface plasmon resonance using a BIACORE® T200 instrument (GE Healthcare). Around 8000 (RU) of goat anti human F(ab′)₂ (10 μg/ml anti human F(ab)′₂; Order Code: 28958325; GE Healthcare Bio-Sciences AB, Sweden) were coupled on a Series S CMS chip (GE Healthcare BR-1005-30) at pH 5.0 by using an amine coupling kit supplied by the GE Healthcare. HBS-N (10 mM HEPES, 150 mM NaCl pH 7.4, GE Healthcare) was used as running buffer during the immobilization procedure. For the following kinetic characterization, sample and running buffer was PBS-T (10 mM phosphate buffered saline including 0.05% Tween20) at pH 7.4. The flow cell was set to 25° C.—and the sample block set to 12° C.—and primed with running buffer twice prior to kinetic characterization.
(§3) The bispecific antibody was captured by injecting a 5 nM solution for 25 sec at a flow of 5 μl/min. The association was measured by injection of human Ang2-RBD-Fc in various concentrations in solution for 120 sec at a flow of 30 μl/min starting with 100 nM in 1:3 serial dilutions. The dissociation phase was monitored for up to 180 sec and triggered by switching from the sample solution to running buffer. The surface was regenerated by 60 sec washing with a Glycine pH 2.1 solution at a flow rate of 30 μl/min. Bulk refractive index differences were corrected by subtracting the response obtained from a goat anti human F(ab′)₂ surface. Blank injections are also subtracted (=double referencing). For calculation of apparent KD the Langmuir 1:1 model was used.
as §1

[3] = target: T2, human Ang-2-RBD-Fc; experiment: SPR (Biacore T200), bispecific antibody captured by anti-human F(ab')2, Ang2-RBD-Fc as analyte, 1:1 Langmuir, apparent KD
Procedure: as §2, §3

B1: Ang2VEGF-0454 (bispecific antibody, human IgG1, kappa)
light 1: QPGLTQPPSVSVAPGQTARITCGGNNIGSKSVHWYQQKPGQAPVLVVYDDSDRPSGIPERFSGSNSGNTATLTISRVEAGDEADYYCQVWDSSSDHYVFGTGTKVTVLRTVAAPSVFIFPPSDEQLKSGTASVVCLLNNFYPREAKVQWKVDNALQSGNSQESVTEQDSKDSTYSLSSTLTLSKADYEKHKVYACEVTHQGLSSPVTKSFNRGEC
heavy 1: not shown
light 2: DIQMTQSPSSLSASVGDRVTITCSASQDISNYLNWYQQKPGKAPKVLIYFTSSLHSGVPSRFSGSGSGTDFTLTISSLQPEDFATYYCQQYSTVPWTFGQGTKVEIKSSASTKGPSVFPLAPSSKSTSGGTAALGCLVKDYFPEPVTVSWNSGALTSGVHTFPAVLQSSGLYSLSSVVTVPSSSLGTQTYICNVNHKPSNTKVDKKVEPKSC
heavy 2: not shown
notes: also called Ang2VEGF-0454-0002; Ang2VEGF-0454-0002 (control)
B1 showed a Kd [1] of 4 nM, a koff [1] of 8.65e-05 s⁻¹ and a kon [1] of 20400 M⁻¹ s⁻¹. For the same binder, the koff [2] was 0.0182 s⁻¹, the kon [2] was 1.08e+07 M⁻¹ s⁻¹ and the Kd [3] was 2 nM.

B2: Ang2VEGF-0462 (bispecific antibody, human IgG1, kappa)
light 1: QPGLTQPPSVSVAPGQTARITCGGNNIGSKSVHWYQQKPGQAPVLVVYDDSDRPSGIPERFSGSNSGNTATLTISRVEAGDEADYYCQVWDSSSDHYVFGTGTKVTVLRTVAAPSVFIFPPSDKRLKSGTASVVCLLNNFYPREAKVQWKVDNALQSGNSQESVTEQDSKDSTYSLSSTLTLSKADYEKHKVYACEVTHQGLSSPVTKSFNRGEC
heavy 1: not shown
light 2: DIQMTQSPSSLSASVGDRVTITCSASQDISNYLNWYQQKPGKAPKVLIYFTSSLHSGVPSRFSGSGSGTDFTLTISSLQPEDFATYYCQQYSTVPWTFGQGTKVEIKSSASTKGPSVFPLAPSSKSTSGGTAALGCLVKDYFPEPVTVSWNSGALTSGVHTFPAVLQSSGLYSLSSVVTVPSSSLGTQTYICNVNHKPSNTKVDKKVEPKSC
heavy 2: not shown
notes: CrossMAb CH1-CL, knob-into-hole with S354C/Y349C; also called Ang2VEGF-0462-0002
Work on B2 yielded a Kd [1] of 4 nM, a koff [1] of 7.52e-05 s⁻¹ and a kon [1] of 21200 M⁻¹ s⁻¹. It also gave a koff [2] of 0.0252 s⁻¹, a kon [2] of 1.21e+07 M⁻¹ s⁻¹ and a Kd [3] of 2 nM.

B3: Ang2VEGF-0460 (bispecific antibody, human IgG1, kappa)
light 1: QPGLTQPPSVSVAPGQTARITCGGNNIGSKSVHWYQQKPGQAPVLVVYDDSDRPSGIPERFSGSNSGNTATLTISRVEAGDEADYYCQVWDSSSDHYVFGTGTKVTVLRTVAAPSVFIFPPSDEQLKSGTASVVCLLNNFYPREAKVQWKVDNALQSGNSQESVTEQDSKDSTYSLSSTLTLSKADYEKHKVYACEVTHQGLSSPVTKSFNRGEC
heavy 1: not shown
light 2: DIQMTQSPSSLSASVGDRVTITCSASQDISNYLNWYQQKPGKAPKVLIYFTSSLHSGVPSRFSGSGSGTDFTLTISSLQPEDFATYYCQQYSTVPWTFGQGTKVEIKSSASTKGPSVFPLAPSSKSTSGGTAALGCLVKDYFPEPVTVSWNSGALTSGVHTFPAVLQSSGLYSLSSVVTVPSSSLGTQTYICNVNHKPSNTKVDEKVEPKSC
heavy 2: not shown
notes: CrossMAb CH1-CL, knob-into-hole with S354C/Y349C; also called Ang2VEGF-0460-0002
B3 showed a Kd [1] of 6 nM, a koff [1] of 8.18e-05 s⁻¹ and a kon [1] of 14200 M⁻¹ s⁻¹. The koff [2] was 0.0163 s⁻¹, the kon [2] was 8.76e+06 M⁻¹ s⁻¹ and the Kd [3] was 2 nM.

B4: Ang2VEGF-0459 (bispecific antibody, human IgG1, kappa)
light 1: QPGLTQPPSVSVAPGQTARITCGGNNIGSKSVHWYQQKPGQAPVLVVYDDSDRPSGIPERFSGSNSGNTATLTISRVEAGDEADYYCQVWDSSSDHYVFGTGTKVTVLRTVAAPSVFIFPPSDEQLKSGTASVVCLLNNFYPREAKVQWKVDNALQSGNSQESVTEQDSKDSTYSLSSTLTLSKADYEKHKVYACEVTHQGLSSPVTKSFNRGEC
heavy 1: not shown
light 2: DIQMTQSPSSLSASVGDRVTITCSASQDISNYLNWYQQKPGKAPKVLIYFTSSLHSGVPSRFSGSGSGTDFTLTISSLQPEDFATYYCQQYSTVPWTFGQGTKVEIKSSASTKGPSVFPLAPSSKSTSGGTAALGCLVEDYFPEPVTVSWNSGALTSGVHTFPAVLQSSGLYSLSSVVTVPSSSLGTQTYICNVNHKPSNTKVDKKVEPKSC
heavy 2: not shown
notes: CrossMAb CH1-CL, knob-into-hole with S354C/Y349C; also called Ang2VEGF-0459-0002
B4 gave a Kd [1] of 4 nM, a koff [1] of 7.19e-05 s⁻¹ and a kon [1] of 17000 M⁻¹ s⁻¹. For the same binder, the koff [2] was 0.0199 s⁻¹, the kon [2] was 8.8e+06 M⁻¹ s⁻¹ and the Kd [3] was 2 nM.

B5: Ang2VEGF-0456 (bispecific antibody, human IgG1, kappa)
light 1: QPGLTQPPSVSVAPGQTARITCGGNNIGSKSVHWYQQKPGQAPVLVVYDDSDRPSGIPERFSGSNSGNTATLTISRVEAGDEADYYCQVWDSSSDHYVFGTGTKVTVLRTVAAPSVFIFPPSDEKLKSGTASVVCLLNNFYPREAKVQWKVDNALQSGNSQESVTEQDSKDSTYSLSSTLTLSKADYEKHKVYACEVTHQGLSSPVTKSFNRGEC
heavy 1: not shown
light 2: DIQMTQSPSSLSASVGDRVTITCSASQDISNYLNWYQQKPGKAPKVLIYFTSSLHSGVPSRFSGSGSGTDFTLTISSLQPEDFATYYCQQYSTVPWTFGQGTKVEIKSSASTKGPSVFPLAPSSKSTSGGTAALGCLVKDYFPEPVTVSWNSGALTSGVHTFPAVLQSSGLYSLSSVVTVPSSSLGTQTYICNVNHKPSNTKVDKKVEPKSC
heavy 2: not shown
notes: CrossMAb CH1-CL, knob-into-hole with S354C/Y349C; also called Ang2VEGF-0456-0002
For B5, the Kd [1] was 4 nM, the koff [1] was 8.4e-05 s⁻¹ and the kon [1] was 21000 M⁻¹ s⁻¹. The koff [2] was 0.0252 s⁻¹, the kon [2] was 1.16e+07 M⁻¹ s⁻¹ and the Kd [3] was 2 nM.

B6: Ang2VEGF-0461 (bispecific antibody, human IgG1, kappa)
light 1: QPGLTQPPSVSVAPGQTARITCGGNNIGSKSVHWYQQKPGQAPVLVVYDDSDRPSGIPERFSGSNSGNTATLTISRVEAGDEADYYCQVWDSSSDHYVFGTGTKVTVLRTVAAPSVFIFPPSDKRLKSGTASVVCLLNNFYPREAKVQWKVDNALQSGNSQESVTEQDSKDSTYSLSSTLTLSKADYEKHKVYACEVTHQGLSSPVTKSFNRGEC
heavy 1: not shown
light 2: DIQMTQSPSSLSASVGDRVTITCSASQDISNYLNWYQQKPGKAPKVLIYFTSSLHSGVPSRFSGSGSGTDFTLTISSLQPEDFATYYCQQYSTVPWTFGQGTKVEIKSSASTKGPSVFPLAPSSKSTSGGTAALGCLVKDYFPEPVTVSWNSGALTSGVHTFPAVLQSSGLYSLSSVVTVPSSSLGTQTYICNVNHKPSNTKVDKKVEPKSC
heavy 2: not shown
notes: CrossMAb CH1-CL, knob-into-hole with S354C/Y349C; also called Ang2VEGF-0461-0002
For B6, the Kd [1] was 4 nM, the koff [1] was 7.67e-05 s⁻¹ and the kon [1] was 19200 M⁻¹ s⁻¹. It also gave a koff [2] of 0.0163 s⁻¹, a kon [2] of 1.07e+07 M⁻¹ s⁻¹ and a Kd [3] of 2 nM.

B7: Ang2VEGF-0463 (bispecific antibody, human IgG1, kappa)
light 1: QPGLTQPPSVSVAPGQTARITCGGNNIGSKSVHWYQQKPGQAPVLVVYDDSDRPSGIPERFSGSNSGNTATLTISRVEAGDEADYYCQVWDSSSDHYVFGTGTKVTVLRTVAAPSVFIFPPSDKRLKSGTASVVCLLNNFYPREAKVQWKVDNALQSGNSQESVTEQDSKDSTYSLSSTLTLSKADYEKHKVYACEVTHQGLSSPVTKSFNRGEC
heavy 1: not shown
light 2: DIQMTQSPSSLSASVGDRVTITCSASQDISNYLNWYQQKPGKAPKVLIYFTSSLHSGVPSRFSGSGSGTDFTLTISSLQPEDFATYYCQQYSTVPWTFGQGTKVEIKSSASTKGPSVFPLAPSSKSTSGGTAALGCLVKDYFPEPVTVSWNSGALTSGVHTFPAVLQSSGLYSLSSVVTVPSSSLGTQTYICNVNHKPSNTKVDKKVEPKSC
heavy 2: not shown
notes: CrossMAb CH1-CL, knob-into-hole with S354C/Y349C; also called Ang2VEGF-0463-0002
For B7, the Kd [1] was 4 nM, the koff [1] was 7.44e-05 s⁻¹ and the kon [1] was 17600 M⁻¹ s⁻¹. The koff [2] was 0.0281 s⁻¹, the kon [2] was 9.54e+06 M⁻¹ s⁻¹ and the Kd [3] was 3 nM.

B8: Ang2VEGF-0455 (bispecific antibody, human IgG1, kappa)
light 1: QPGLTQPPSVSVAPGQTARITCGGNNIGSKSVHWYQQKPGQAPVLVVYDDSDRPSGIPERFSGSNSGNTATLTISRVEAGDEADYYCQVWDSSSDHYVFGTGTKVTVLRTVAAPSVFIFPPSDEKLKSGTASVVCLLNNFYPREAKVQWKVDNALQSGNSQESVTEQDSKDSTYSLSSTLTLSKADYEKHKVYACEVTHQGLSSPVTKSFNRGEC
heavy 1: not shown
light 2: DIQMTQSPSSLSASVGDRVTITCSASQDISNYLNWYQQKPGKAPKVLIYFTSSLHSGVPSRFSGSGSGTDFTLTISSLQPEDFATYYCQQYSTVPWTFGQGTKVEIKSSASTKGPSVFPLAPSSKSTSGGTAALGCLVKDYFPEPVTVSWNSGALTSGVHTFPAVLQSSGLYSLSSVVTVPSSSLGTQTYICNVNHKPSNTKVDKKVEPKSC
heavy 2: not shown
notes: CrossMAb CH1-CL, knob-into-hole with S354C/Y349C; also called Ang2VEGF-0455-0002
In the case of B8, the Kd [1] is reported as 7 nM, the koff [1] is reported as 9.01e-05 s⁻¹ and the kon [1] is reported as 12600 M⁻¹ s⁻¹. The koff [2] was 0.0227 s⁻¹, the kon [2] was 1.06e+07 M⁻¹ s⁻¹ and the Kd [3] was 2 nM.

From US20170129962A1 (Hoffmann-La Roche, published 2017)
